Source: the DeepSol protein solubility set

Test: soluble on expression in E. coli; label from the status in PepcDB or PDB records

Sequence	soluble on expression in E. coli
TPAAPISTVADGDWPAYGRNQEGQRFSPLKQINADNVKNLKEAWVFRTGDLKQPNDPGEITNEVTPIKVGDTLFLCTAHQRLFALDAATGKEKWHFDPQLNADPSFQHVTCRGVSYHEAKADNAPADVVADCPRRIILPVNDGRLFAVNADNGKLCETFANKGILNLQTNMPVTTPGMYEPTSPPIITDKTIVIAGAVTDNFSTREPSGVIRGFDVNTGKLLWAFDPGAKDPNAIPSDEHHFTLNSPNSWAPAAYDAKLDLVYLPMGVTTPDIWGGNRTPEQERYASSIVALNATTGKLAWSYQTVHHDLWDMDMPSQPTLADIEVNGKTVPVIYAPAKTGNIFVLDRRNGELVVPAPEKPVPQGAAKGDYVTKTQPFSDLSFRPKKDLTGADMWGATMFDQLVCRVIFHQLRYEGIFTPPSEQGTLVFPGNLGMFEWGGISVDPNRQVAIANPMALPFVSKLIPRGPGNPMEPPKDAKGSGTESGVQPQYGVPYGVTLNPFLSPFGLPCKQPAWGYISALDLKTNEVVWKKRIGTPQDSLPFPMPVKLPFTMGMPMLGGPISTAGNVLFIGATADNYLRAYNMSNGEKLWEARLPAGGQATPMTYEVNGKQYVVISAGGHGSFGTKMGDYIVAYALPDDAK	not soluble
MGSDKIHHHHHHAEVADSIEGGNGEAPLEVRAVTGAEVDTRAPAAVEMTEGTLGIFRLAEADYTALDNIRYDRVPGGNWHPVSTVIYVGGTYARLCAYAPYNSVEFKNSSLKTEAGLTMQTYAVEKDMRFAVSGGDEVWKKTPTANFELKRAYARLVLSVVRDATYPNTCKITQAKIKASTGNIITANTVDISTGTEGSGTQTPQYTHTVTTGLKDGFEIGVTDDTSFDWLLPQQTFSGGVVLTLTVDGMDYSVTIPVDKLSTFVRGTKYTVSLVVKGGKLTLMSDKILIDRDWTEVQTGTGGSGSDYDTSFN	not soluble
HGTELPSPPSVWFEAEFFHHILHWTPIPQQSESTCYEVALLRYGIESWNSISQCSQTLSYDLTAVTLDLYHSNGYRARVRAVDGSRHSQWTVTNTRFSVDEVTLTVGSVNLEIHNGFILGKIQLPRPKMAPAQDTYESIFSHFREYEIAIRKVPGQFTFTHKKVKHEQFSLLTSGEVGEFCVQVKPSVASRSNKGMWSKEECISLTRQYFTVTN	soluble
MGSDKIHHHHHHMMQALKIDEEIWQMFPEARFEVLVVKGINNQSKADEYYQELLDRAIEKSQKYIANDVFRDNPVVSEWRTAFTKFKKKKGARASIEALLKRVSQGKSLSPINPLVDIYNSISLEYGVPCGGEDLQKMDGTMHLGVAKGGESFRPLGSDEDEPALPGEVIYYDATGAICRCFNWREAQRTMLTEDTTDAVMVIEAINADQAQRAKSAIEKLKELVESKLNATGEHFTLQAQ	not soluble
NGAFFCNECDCRFSEEASLKRHTLQTHSDK	soluble
MGSDKIHHHHHHMMPELKSALYAGKVMHQRLKPRRHRLSYRIFFLLLDLDEIDAMSKRLRLLSHNRFNLFGFADADHGDGSGGSLKAYVEDMLKTAGIETDAGPIRLLSMPRMLGYAFNPISIYFCHSRQGDLVAILYEVNNTFGQRHSYLIPVGERHDETVRQHCDKRFYVSPFMAMGLNYRFRIGLPGENVAIHITASDDQGPLMVASFAGKRRALSDASLLRAFISYPLLTLKVTAGIHWEALRLWAKGIRLQERPAPPHNSITHVAMHGRLRRKAEPDVI	not soluble
MSHIIDRRLNGKNKSAVNRERFLRRFKAQIKEAVSKAIKGRSITDIESGEKVSIPVKDISEPSFHHGKGGVWENVHPGNEEFVKGDRIPRPQGGAGGGGSKASQDGEGEDDFVFQLSREEFMNVFFDDLALPNLVKTQLMGIEEMKTVRAGYTNDGTPTNINIVRSPRGALARRVAMAAPTLSSIDEAEEELDTLIESDDDNALEVRDRRQRIHQMKERLASIPWIDPFDLRYNNRVKQPKPTSQAVMFCIMDVSGSMDEQKKDMAKRFFILLYMFLQRNYEKIEVVFIRHHTSAVEVNEQDFFHSRESGGTVVSSALNLMSDVIRKRYASSEWNIYAAQASDGDNWDSDSANCGRILEENLLPYCQYFAYIEITEGEPQNLWYEYLKVKAQCPQFAMQKIRSASDIYPVFRELFKRQPANGRVSALEHHHHHH	soluble
MLSYRHAFHAGNHADMLKHFTLFLVLQYFNRKDKPYWYIDTHGGAGVYNLEGSEAQKVGEYRQGIALLRQAQNLPAELSDFAAHIQKILPSPKLYCGSPWLAQSLTRVGDKLRLFELHPTDFVHLQNNMGEAGLGKRGQVLREDGYKGLISLLPPPPRRATVLIDPPYEEKQDYRRVTETLKAALKRFESGCYLIWYPCLSREESRKLPEELKKLLPDNYLHAELHVHAPKADGFGMHGSGMFVINPPYLLAEQLAANLPALTRLLAQDEGSRYLLDSKIR	not soluble
MALPQDSVNMALFCDFENIALGVRDTKFEKFDIKPVLEKLLLKGSIVVKKAYCDWDRYKTFKAAMHEASFELIEIPHVRQSGKNSADIRLVVDALDLCYTKAHVDTFVIISGDSDFSPLVSKLRENAKRVIGVGVKNSTSDLLVANCDEFIFYDDLAR	not soluble
MRPDFGTDGRLPSALSMGTADVAFHLATGGNPVPLAFTFGFEGRAPTLDSVRARVAERVHHVPALRYRIARDRRKFRRVDRIAVDRHVHEAWLPEDTDGSATSRLMLSRPMSTDDRPPWDVWLVHGPAERHTLVYRTDHTFQDGMGAAYTARALLGDHPEGGPAPQRPARPTAHGLADALGEVVAAFRAPTPKPAFDGDFTGRVDVCHADTPLARLRAIARAHGGTVTDVYLAALSHAVRTWYLKDTGSAHPPLPVSIPMSVRAPGEEYAPGNRMVTARLLLPCDEESPQRALARVVAGTGRLRESRRRDAMRLLLSASPRALGATVGTRLVRGAFVAGPVSSVNFGTALVHQGVAARRSAVFAGVASGIRCVTTLTSQHDTACLTVVHDEALATADELPDLWLAALLELERPLEHHHHHH	not soluble
KKPEGKPDQKFDQKQELGRVIHLSNLPHSGYSDSAVLKLAEPYGKIKNYILMRMKSQAFIEMETREDAMAMVDHCLKKALWFQGRCVKVDLSEKYKKLV	soluble
MGSDKIHHHHHHEEDNTELSEEDRVAEMFREAGFKVEKLSSKPVNPPMTEKEASLFLAAYKNRERSGSIQIPSENIELKPDGHLVVKVKCNSEKKNFSRTRTVYKEEFDFTHWATYTVRDIEIECWQDIAGYWKSDNVNCTFTTRDPEYICGFPDINPNTGYSKGSLYFSINITVSRYSGWQIYSVDENYDYTLMLTWLPVAQEWNASLSWHETFW	not soluble
MDKNWMIAMHNPATIYNPNAQTEFVEFPIYTVLIDHPEGKILFDTACNPNSMGPQGRWAEVTQQMFPWNASEECYLHNRLEQLKVRPEDIRYVVASHLHLDHAGCLEMFTNATIIVHEDEFNGALQCYARNQKEGAYIWADIDAWIKNNLQWRTVKRHEDNILLAEGVRVLNFGSGHAWGMLGLHVELPETGKIILASDAIYTAENYGPPVKPPGIIYDSLGYVNTVERIRRIAQETNSKIWFGHDAEQFKQFRKSTEGYYE	not soluble
MLPSWKAFKAHNILRILTRFQSTKIPDAVIGIDLGTTNSAVAIMEGKVPRIIENAEGSRTTPSVVAFTKDGERLVGEPAKRQSVINSENTLFATKRLIGRRFEDAEVQRDINQVPFKIVKHSNGDAWVEARNRTYSPAQIGGFILNKMKETAEAYLAKSVKNAVVTVPAYFNDAQRQATKDAGQIIGLNVLRVVNEPTAAALAYGLDKSEPKVIAVFDLGGGTFDISILDIDNGIFEVKSTNGDTHLGGEDFDIYLLQEIISHFKKETGIDLSNDRMAVQRIREAAEKAKIELSSTLSTEINLPFITADAAGPKHIRMPFSRVQLENITAPLIDRTVDPVKKALKDARITASDISDVLLVGGMSRMPKVADTVKKLFGKDASKAVNPDEAVALGAAIQAAVLSGEVTDVLLLDVTPLSLGIETLGGVFTKLIPRNSTIPNKKSQIFSTAASGQTSVEVKVFQGERELVKDNKLIGNFTLAGIPPAPKGTPQIEVTFDIDANGIINVSAKDLASHKDSSITVAGASGLSDTEIDRMVNEAERYKNQDRARRNAIETANKADQLANDTENSIKEFEGKLDKTDSQRLKDQISSLRELVSRSQAGDEVNDDDVGTKIDNLRTSSMKLFEQLYKNSDNPETKNGRENK	not soluble
MGHHHHHHSHMLSRWDDSQRFLSDHPYLVCEETAKYLILWCFHLEAEKKGALMEQIAHQAVVMQFIMEMAKNCNVDPRGCFRLFFQKAKAEEEGYFEAFKNELEAFKSRVRLYSQSQSFQPMTVQNHVPHSGVGSIGLLESLPQNPDYLQYSISTALCSLNSVVHKEDDEPKMMDTV	not soluble
MASKMDTETHYSDVWVVIPAFNEAAVIGKVVTDVRSVFDHVVCVDDGSTDGTGDIARRSGAHLVRHPINLGQGAAIQTGIEYARKQPGAQVFATFDGDGQHRVKDVAAMVDRLGAGDVDVVIGTRFGRPVGKASASRPPLMKRIVLQTGARLSRRGRRLGLTDTNNGLRVFNKTVADGLNITMSGMSHATEFIMLIAENHWRVAEEPVEVLYTEYSKSKGQPLLNGVNIIFDGFLRGRMPR	not soluble
MGLELPLILGTSSVFRREQMERLGIAFQAASPDFDETPMLGESAPQTALRLAEGKARSLTGRFPEALIVGADQVAWCDGRQWGKPMNLANAQKMLMHLSGREIEFYSAIVLLNTVTGRMRRHIDKTVVVMRQLDELHILRYLEREPDAVYCSCALKSEDLGALLIERIESTDPNALIGLPVFRLVDFLKNEGVEVL	not soluble
MSECSASTSQLSTFCVNEIPWKLVPQTCDEFSEYEFIDEKYRRLSDVESFVWKWSPCGRYGIDLPGGRDVINQQLRDRMAVFDLHTNKWTLYTMDRGAFEIPRVCFLYWARNDIIGTITLVKDYEAGPDDEIPLKFKQSFFYVSHETQTLVYSGSCKYRTNKTIVASYWYHIFENRRGEPFIDHNNYLWLVFSNGVDSLILLPFIPTSTCFKAKCVSFDMNDIVSQFTGIRVFLDPFVSSHYVPWVYRNDVNFFIRIDSHSFIEEQNRDYGLDPQIDNPETKPHRGVFQLRVNLKDVIEKGEKDAIHAVNPETIETRFNRGDIELWRKISDELRQEHQSIAQHGKMVVVQRWSHFTVDMGLSKKMRTRVADLDARDYCCSHKPRNSSFCCIDLDSERIKAVDALILGTDVVLPHPSGSVFLFRYKENYGMSYCELPFFQPLSLKLKCIQVLKESVEIDPSYYRIKCCLKMQEELEKETAENLCTINIQQ	not soluble
MGSDKIHHHHHHMRTIWTPTLENFSGSKYEQLANAIGDAITRGELAPGSKLPPQRRLADALGVTLGTVTRAYTKAIYRGWVEARVGDGTYVRMAEPKSTGPLDLATCQQAVTDQAAFLGEVMSRMGRDPVRLAGLLDYHTANLEAQQETVLTFLARSGVDDFGGKLVFTHGAQQGLFAALAAICEPGDWVLHEAWCYPGLNRAAEALSLNLCGVSLLDDGLNLDELAACIDKHKPKAIYLTPNSQNPGCIGYSGAQRQRILALARAHDIIIIEDDVNYCTSQEWSAPIWQLAADAQSVVYLSSLSKRFAGGIRFGFMLLPARLQPRVNRIIHAHCWMVSPLLIEIGCELIRSGGIHQHRDAWIASLQQRFLTMAESLDLEAKSRGLNGRLTLPEGFRASNVIAALAAKGILARSLADFGGPANGIRFSLGRIPRGEEDEVFDRIQSTLTDVLNQGIAVV	not soluble
MGSDKIHHHHHHMQHHKVAIIGAGAAGIGMAITLKDFGITDVIILEKGTVGHSFKHWPKSTRTITPSFTSNGFGMPDMNAISMDTSPAFTFNEEHISGETYAEYLQVVANHYELNIFENTVVTNISADDAYYTIATTTETYHADYIFVATGDYNFPKKPFKYGIHYSEIEDFDNFNKGQYVVIGGNESGFDAAYQLAKNGSDIALYTSTTGLNDPDADPSVRLSPYTRQRLGNVIKQGARIEMNVHYTVKDIDFNNGQYHISFDSGQSVHTPHEPILATGFDATKNPIVQQLFVTTNQDIKLTTHDESTRYPNIFMIGATVENDNAKLCYIYKFRARFAVLAHLLTQREGLPAKQEVIENYQKNQMYLDDYSCCEVSCTC	not soluble
